The target of the test is 10042.05.SOSIP trimer (recombinant HIV-1 Env trimer 10042.05 from subject VC10042, cleaved SOSIP form) (HIV-1). Description: SEC + native gel or EMSA; Superdex 200 16/600 pg SEC after lectin and ion exchange steps; fractions and final preparation on blue native PAGE; analytical SEC as QC.

A word on the stoichiometry N: it is a count of units in the complex or per binding partner.

For “10042.05.SOSIP trimer (recombinant HIV-1 Env trimer 10042.05 from subject VC10042, cleaved SOSIP form) (complex)”, the stoichiometry N amounted to 3.
